From the Immune Epitope Database (IEDB)
Each block holds one sequence with its values, some of them ahead of it.

Legend:
HLA-A*32:07 = experiment: IEDB peptide-MHC binding, purified MHC/competitive/fluorescence; filed as Kd, often an IC50 or EC50 that approximates it; ≥ and ≤ were set here for values at or beyond the usual limits of such assays
HLA-B*15:42 = experiment: as above
HLA-B*39:01 [1] = experiment: as above; conditions: source organism: Escherichia coli B171
HLA-B*40:01 [2] = experiment: as above; conditions: source organism: Escherichia coli B171
HLA-B*40:13 = experiment: as above; conditions: source organism: Escherichia coli B171
HLA-B*45:06 = experiment: as above
HLA-B*83:01 = experiment: as above
HLA-C*01:02 = experiment: IEDB peptide-MHC binding, purified MHC/direct/fluorescence; filed as Kd, often an IC50 or EC50 that approximates it; ≥ and ≤ were set here for values at or beyond the usual limits of such assays; conditions: source organism: Homo sapiens
HLA-B*15:01 = experiment: as above
HLA-B*15:02 = experiment: as above; conditions: source organism: Convict Creek 107 virus
HLA-B*46:01 = experiment: as above
HLA-A*02:01 [3] = experiment: IEDB peptide-MHC binding, binding assay; filed as Kd, often an IC50 or EC50 that approximates it; ≥ and ≤ were set here for values at or beyond the usual limits of such assays; conditions: source organism: Severe acute respiratory syndrome coronavirus 2 Indonesia/JI-ITD-12202V/2020
HLA-A*02:01 [4] = experiment: IEDB peptide-MHC binding, purified MHC/competitive/radioactivity; ≥ and ≤ were set here for values at or beyond the usual limits of such assays; conditions: source organism: Toxoplasma gondii
HLA-A*11:01 [5] = experiment: as above; conditions: source organism: Toxoplasma gondii
HLA-B*07:02 = experiment: as above; conditions: source organism: Toxoplasma gondii
HLA-A*24:02 = experiment: as above; conditions: source organism: Homo sapiens
HLA-B*35:01 [6] = experiment: IEDB peptide-MHC binding, purified MHC/direct/fluorescence; filed as Kd, often an IC50 or EC50 that approximates it; ≥ and ≤ were set here for values at or beyond the usual limits of such assays; conditions: source organism: Salmonella enterica subsp. enterica serovar Typhi
HLA-B*15:17 = experiment: IEDB peptide-MHC binding, purified MHC/competitive/fluorescence; filed as Kd, often an IC50 or EC50 that approximates it; ≥ and ≤ were set here for values at or beyond the usual limits of such assays
HLA-B*44:02 = experiment: as above; conditions: source organism: Salmonella enterica subsp. enterica serovar Typhi
HLA-B*57:01 [7] = experiment: as above; conditions: source organism: Salmonella enterica subsp. enterica serovar Typhi
HLA-A*01:01 = experiment: IEDB peptide-MHC binding, purified MHC/direct/fluorescence; filed as Kd, often an IC50 or EC50 that approximates it; ≥ and ≤ were set here for values at or beyond the usual limits of such assays; conditions: source organism: Camelpox virus M-96
HLA-A*02:01 [8] = experiment: as above; conditions: source organism: Camelpox virus M-96
HLA-A*26:01 = experiment: as above; conditions: source organism: Variola virus
HLA-A*31:01 = experiment: as above; conditions: source organism: Camelpox virus M-96
HLA-A*80:01 = experiment: as above; conditions: source organism: Camelpox virus M-96
HLA-B*15:09 = experiment: as above; conditions: source organism: Variola virus
HLA-B*27:05 = experiment: as above; conditions: source organism: Camelpox virus M-96
HLA-B*39:01 [9] = experiment: as above; conditions: source organism: Variola virus
HLA-B*40:01 [10] = experiment: as above; conditions: source organism: Camelpox virus M-96
HLA-B*48:01 = experiment: as above; conditions: source organism: Camelpox virus M-96
HLA-B*57:01 [11] = experiment: as above; conditions: source organism: Camelpox virus M-96
HLA-B*58:01 = experiment: as above
HLA-A*03:01 = experiment: IEDB peptide-MHC binding, purified MHC/competitive/fluorescence; filed as Kd, often an IC50 or EC50 that approximates it; ≥ and ≤ were set here for values at or beyond the usual limits of such assays; conditions: source organism: Taterapox virus
HLA-A*11:01 [12] = experiment: as above; conditions: source organism: Taterapox virus
HLA-A*69:01 = experiment: as above; conditions: source organism: Taterapox virus
HLA-A*32:15 = experiment: as above; conditions: source organism: Mycobacterium tuberculosis variant bovis BCG str. Pasteur 1173P2
HLA-A*68:23 = experiment: as above; conditions: source organism: Mycobacterium tuberculosis variant bovis BCG str. Pasteur 1173P2
HLA-B*35:01 [13] = experiment: as above; conditions: source organism: Mycobacterium tuberculosis variant bovis BCG str. Pasteur 1173P2
HLA-B*51:01 = experiment: as above; conditions: source organism: Mycobacterium tuberculosis variant bovis BCG str. Pasteur 1173P2
[14] = source organism: Escherichia coli B171
[15] = source organism: Convict Creek 107 virus
[16] = source organism: Salmonella enterica subsp. enterica serovar Typhi
[17] = source organism: Camelpox virus M-96
[18] = source organism: Mycobacterium tuberculosis variant bovis BCG str. Pasteur 1173P2

- Kd (HLA-A*32:07; [14]): 58.2 nM
- Kd (HLA-B*15:42; [14]): ≥ 5000 nM
- Kd (HLA-B*39:01 [1]): 0.2 nM
- Kd (HLA-B*40:01 [2]): 2.5 nM
- Kd (HLA-B*40:13): 30.2 nM
- Kd (HLA-B*45:06; [14]): ≥ 5000 nM
- Kd (HLA-B*83:01; [14]): ≥ 5000 nM
Sequence: HELSLFWPL

- Kd (HLA-C*01:02): ≤ 0.1 nM
Sequence: HLSSSQLQSL

Sequence: VLFKTESGF
- Kd (HLA-B*15:01; [15]): 11.8 nM
- Kd (HLA-B*15:02): 47 nM
- Kd (HLA-B*46:01; [15]): ≥ 20000 nM

Sequence: YLQPRTFLL
- Kd (HLA-A*02:01 [3]): 75 nM

Sequence: AVVSLLRLLK
- IC50 (HLA-A*02:01 [4]): 11300 nM
- IC50 (HLA-A*11:01 [5]): 6.5 nM
- IC50 (HLA-B*07:02): ≥ 50000 nM

- IC50 (HLA-A*24:02): 800 nM
Sequence: SFSTTINYTL

Sequence: IVLLCYGGW
- Kd (HLA-B*15:01; [16]): 6180 nM
- Kd (HLA-B*35:01 [6]): 2530 nM
- Kd (HLA-B*15:17; [16]): 175 nM
- Kd (HLA-B*44:02): ≥ 20000 nM
- Kd (HLA-B*57:01 [7]): 498 nM

Sequence: NTDAFSREY
- Kd (HLA-A*01:01): 7 nM
- Kd (HLA-A*02:01 [8]): ≥ 20000 nM
- Kd (HLA-A*26:01): 984 nM
- Kd (HLA-A*31:01): ≥ 20000 nM
- Kd (HLA-A*80:01): 567 nM
- Kd (HLA-B*15:01; [17]): ≥ 20000 nM
- Kd (HLA-B*15:09): ≥ 20000 nM
- Kd (HLA-B*27:05): ≥ 20000 nM
- Kd (HLA-B*39:01 [9]): ≥ 20000 nM
- Kd (HLA-B*40:01 [10]): ≥ 20000 nM
- Kd (HLA-B*46:01; [17]): ≥ 20000 nM
- Kd (HLA-B*48:01): ≥ 20000 nM
- Kd (HLA-B*57:01 [11]): ≥ 20000 nM
- Kd (HLA-B*58:01; [17]): ≥ 20000 nM
- Kd (HLA-A*03:01): ≥ 20000 nM
- Kd (HLA-A*11:01 [12]): ≥ 20000 nM
- Kd (HLA-A*69:01): ≥ 20000 nM
- Kd (HLA-B*15:17; source organism: Taterapox virus): ≥ 20000 nM

Sequence: MTMITPPTF
- Kd (HLA-B*58:01; source organism: Mycobacterium tuberculosis): 51.3 nM
- Kd (HLA-A*32:07; [18]): 9.3 nM
- Kd (HLA-A*32:15): 19.2 nM
- Kd (HLA-A*68:23): 4.4 nM
- Kd (HLA-B*15:42; [18]): ≥ 5000 nM
- Kd (HLA-B*35:01 [13]): 111 nM
- Kd (HLA-B*45:06; [18]): ≥ 5000 nM
- Kd (HLA-B*51:01): ≥ 20000 nM
- Kd (HLA-B*83:01; [18]): ≥ 5000 nM
